Laboratory results: patent US12352767B2, “Method of treating cognitive decline associated with neurological diseases based on a decrease in FLT4 expression or activity” (University of Virginia Patent Foundation, priority 2018, dated 2025)
Where a chain is given by its changes, count along the chain named. In names and notes the source's numbering stands. Entries after “also recorded” stand apart in the source; their conditions may differ.

B1: VEGF-C: recombinant human VEGF-C (PeproTech) encapsulated in hyaluronic acid/methylcellulose hydrogel for transcranial delivery (protein, UniProt P49767 112-227, looked up)
Vascular endothelial growth …: AHYNTEILKSIDNEWRKTQCMPREVCIDVGKEFGVATNTFFKPPCVSVYRCGGCCNSEGLQCMNTSTSYLSKTLFEITVPLSQGPKPVTISFANHTSCRCMSKLDVYRQVHSIIRR
modifications: in hyaluronic acid/methylcellulose hydrogel
notes: recombinant human VEGF-C (PeproTech) encapsulated in hyaluronic acid/methylcellulose hydrogel for transcranial delivery
B2: VEGF-C156S: mutant VEGF-C protein that binds specifically to VEGFR3, delivered in hydrogel transcranially (protein, UniProt P49767 112-227, looked up, variant C156S)
Vascular endothelial growth …: B1 Vascular endothelial growth … with C45S
modifications: delivered in hydrogel

What was measured:
[1] = test system: meningeal lymphatic vessels; experiment: Meningeal whole-mount immunostaining (LYVE-1/CD31): lymphatic vessel area and diameter, blood vessel coverage
Method: Selective ablation of the meningeal lymphatic vessels was achieved by i.c.m. injection and transcranial photoconversion of Visudyne® (verteporfin for injection, Valeant Ophtalmics). Visudyne was reconstituted following manufacturer instructions and 5 μL was injected i.c.m. following the previously described procedure. […] Each spot was irradiated with a light dose of 50 J/cm^2 at an intensity of 600 mW/cm^2 for a total of 83 s. Controls were injected with the same volume of Visudyne (without the photoconversion step) or sterile saline plus photoconversion (vehicle/photoconversion). The scalp skin was then sutured, the mice were subcutaneously injected with ketoprofen (2 mg/Kg) and allowed to recover on a heating pad until fully awake.
A hydrogel of 1.4% hyaluronic acid and 3% methylcellulose alone (vehicle) or with 200 ng/mL of encapsulated human VEGF-C (PeproTech) or VEGF-C156S (R&D Systems) was prepared as described elsewhere^49. Briefly, lyophilized, sterile methylcellulose (4000 cP, Sigma-Aldrich) and sterile hyaluronic acid (1500-1800 kDa, Sigma-Aldrich) were sequentially dissolved in sterile 0.1 M phosphate buffered saline (PBS) at 4° C. overnight. Lyophilized VEGF-C or VEGF-C156S were resuspended as particulate at 2000 ng/mL in 0.5% sterile methylcellulose in PBS. The particulate solution, or vehicle 0.5% methylcellulose, was mixed into the hydrogel pre-solution at 1:10, and loaded into a syringe for gelation at 37° C. […] The hydrogels were prepared on the day of the experiment and kept warm inside the individual syringes until applied onto the mouse's skull. […] An incision was made in the scalp skin and the skull was thinned at the junction of all sinuses and above the transverse sinus. The shear-thinning properties of the polymers allowed the extrusion of 100 μL of each hydrogel solution from the syringe into the thinned skull surface. The scalp skin was then sutured on top of the solidified hydrogel, the mice were subcutaneously injected with ketoprofen (2 mg/Kg) and allowed to recover on a heating pad until fully awake.
Mice were given a lethal dose of anesthetics by intraperitoneal (i.p.) injection of Euthasol (10% v/v in saline). When needed, CSF was collected from the cisterna magna using a 0.5 mm diameter borosilicate glass pipette with internal filament and immediately stored at −80° C. Mice were then transcardially perfused with ice cold PBS with heparin (10 U/mL). Deep cervical lymph nodes were dissected and drop fixed in 4% paraformaldehyde (PFA) for 12 hours at 4° C. After stripping the skin and muscle from the bone the head was collected and drop fixed in 4% PFA. […] The brains were kept in 4% PFA for additional 24 hours (48 hours in total). […]

[2] = test system: meningeal lymphatic drainage; experiment: Drainage of CSF tracer (OVA-A647) into deep cervical lymph nodes; format: in vivo, mice
Method: (§1) Mice were anaesthetized by intraperitoneal (i.p.) injection of a mixed solution of ketamine (100 mg/Kg) and xylazine (10 mg/Kg) in saline. The skin of the neck was shaved and cleaned with iodine and 70% ethanol, ophthalmic solution placed on the eyes to prevent drying and the mouse's head was secured in a stereotaxic frame. After making a skin incision, the muscle layers were retracted and the cisterna magna exposed. Using a Hamilton syringe (coupled to a 33-gauge needle), the volume of the desired tracer solution was injected into the CSF-filled cisterna magna compartment. For brain CSF influx and lymphatic drainage experiments, 2 or 5 μL of Alexa Fluor® 594 or 647 conjugated OVA (Thermo Fisher Scientific), at 0.5 mg/mL in artificial CSF (#597316, Harvard Apparatus U.K.), were injected at a rate of 2.5 μL/min. After injecting, the syringe was left in place for additional 2 min to prevent back-flow of CSF.

brain parenchyma = experiment: Brain perfusion/influx by CSF tracer OVA-A647 (brain sections); format: in vivo, mice; conditions: old mice
Method: as §1

[3] = test system: meningeal lymphatic vessels; conditions: recombinant VEGF-C, previously shown (ref. 4); cited from earlier work
VEGFR3 = VEGFR3 (Homo sapiens, UniProt P35916); conditions: VEGFR3 vs VEGFR2 (refs. 34, 36); cited from earlier work
Chain of VEGFR3 (P35916 25-1363, species assumed): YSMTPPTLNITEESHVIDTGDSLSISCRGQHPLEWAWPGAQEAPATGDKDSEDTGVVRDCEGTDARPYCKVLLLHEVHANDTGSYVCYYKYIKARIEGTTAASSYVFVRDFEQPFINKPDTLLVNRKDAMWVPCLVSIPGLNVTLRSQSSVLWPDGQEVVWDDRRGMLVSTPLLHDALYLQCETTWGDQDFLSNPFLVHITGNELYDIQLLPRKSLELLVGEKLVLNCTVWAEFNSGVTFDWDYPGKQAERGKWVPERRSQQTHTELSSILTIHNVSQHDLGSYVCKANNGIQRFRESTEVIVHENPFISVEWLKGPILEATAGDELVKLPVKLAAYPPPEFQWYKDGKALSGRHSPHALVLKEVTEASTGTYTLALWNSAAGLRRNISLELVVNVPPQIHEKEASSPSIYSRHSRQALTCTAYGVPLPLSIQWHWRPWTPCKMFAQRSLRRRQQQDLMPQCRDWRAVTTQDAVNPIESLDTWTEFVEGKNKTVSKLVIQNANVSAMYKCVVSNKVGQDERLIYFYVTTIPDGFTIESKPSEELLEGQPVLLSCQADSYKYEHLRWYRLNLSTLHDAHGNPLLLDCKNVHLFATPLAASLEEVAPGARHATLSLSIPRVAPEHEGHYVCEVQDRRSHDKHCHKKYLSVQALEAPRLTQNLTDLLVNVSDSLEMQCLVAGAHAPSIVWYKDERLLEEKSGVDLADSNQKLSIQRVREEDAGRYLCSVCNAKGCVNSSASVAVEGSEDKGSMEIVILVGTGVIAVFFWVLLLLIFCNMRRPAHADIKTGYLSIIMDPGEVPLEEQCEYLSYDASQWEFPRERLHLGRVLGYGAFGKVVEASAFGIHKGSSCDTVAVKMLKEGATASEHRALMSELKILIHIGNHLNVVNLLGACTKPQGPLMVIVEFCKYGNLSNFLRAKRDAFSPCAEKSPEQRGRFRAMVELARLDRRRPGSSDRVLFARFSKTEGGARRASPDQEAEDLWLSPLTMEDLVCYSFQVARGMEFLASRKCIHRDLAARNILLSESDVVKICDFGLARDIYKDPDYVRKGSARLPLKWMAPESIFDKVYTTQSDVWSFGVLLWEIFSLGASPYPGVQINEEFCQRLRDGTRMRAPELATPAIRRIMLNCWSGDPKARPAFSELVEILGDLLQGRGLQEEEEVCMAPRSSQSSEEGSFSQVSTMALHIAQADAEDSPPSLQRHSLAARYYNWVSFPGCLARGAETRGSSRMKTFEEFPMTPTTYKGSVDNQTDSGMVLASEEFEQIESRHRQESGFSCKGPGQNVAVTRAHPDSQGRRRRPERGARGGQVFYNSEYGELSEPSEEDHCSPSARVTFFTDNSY

Molecule	meningeal lymphatic vessel diameter (superior sagittal sinus) ([1]; young/adult (3 months) and old (20-24 months) mice, hydrogel VEGF-C 200 ng/mL transcranial, 4 weeks, vs vehicle)	meningeal lymphatic function (OVA-A647 drainage into dCLNs) ([2]; old mice, transcranial hydrogel VEGF-C vs vehicle)	meningeal lymphatic function (OVA-A647 drainage into dCLNs) ([2]; young-adult mice, transcranial hydrogel VEGF-C)	brain perfusion by CSF macromolecules (OVA-A647 influx) (brain parenchyma; transcranial hydrogel VEGF-C)	diameter of meningeal lymphatic vessels [3]	meningeal lymphatic diameter (LYVE-1+ vessels, superior sagittal sinus) ([1]; old mice, hydrogel VEGF-C156S 200 ng/mL transcranial vs vehicle)	drainage of tracer from the CSF (OVA-A647 area fraction in dCLNs) ([2]; old mice, transcranial VEGF-C156S vs vehicle)	paravascular influx of tracer into the brain (OVA-A647 area fraction) (brain parenchyma; transcranial VEGF-C156S)	receptor binding specificity (VEGFR3)
B1	increased diameter; also recorded: significant increase	significant increase; also recorded: increased drainage	did not respond	enhanced brain perfusion; also recorded: significantly increased	increases the diameter				
B2						significant increase; also recorded: increased diameter	significant increase	significant increase	binds specifically to VEGFR3 and spares its effects on VEGFR2
